Reference: US20170335310A1

How the values were obtained:
[1] = biological target: C3b (UniProt P01024); assay: SPR (Biacore), FH flowed over C3b amine-coupled to a CM5 chip; steady-state fit to two flow cells (1540 and 3030 RU C3b) together
[2] = biological target: C3b (UniProt P01024); assay: cell-based or functional assay

Sequence of C3b (P01024 749-1663 limits assumed, chain 1 of 2): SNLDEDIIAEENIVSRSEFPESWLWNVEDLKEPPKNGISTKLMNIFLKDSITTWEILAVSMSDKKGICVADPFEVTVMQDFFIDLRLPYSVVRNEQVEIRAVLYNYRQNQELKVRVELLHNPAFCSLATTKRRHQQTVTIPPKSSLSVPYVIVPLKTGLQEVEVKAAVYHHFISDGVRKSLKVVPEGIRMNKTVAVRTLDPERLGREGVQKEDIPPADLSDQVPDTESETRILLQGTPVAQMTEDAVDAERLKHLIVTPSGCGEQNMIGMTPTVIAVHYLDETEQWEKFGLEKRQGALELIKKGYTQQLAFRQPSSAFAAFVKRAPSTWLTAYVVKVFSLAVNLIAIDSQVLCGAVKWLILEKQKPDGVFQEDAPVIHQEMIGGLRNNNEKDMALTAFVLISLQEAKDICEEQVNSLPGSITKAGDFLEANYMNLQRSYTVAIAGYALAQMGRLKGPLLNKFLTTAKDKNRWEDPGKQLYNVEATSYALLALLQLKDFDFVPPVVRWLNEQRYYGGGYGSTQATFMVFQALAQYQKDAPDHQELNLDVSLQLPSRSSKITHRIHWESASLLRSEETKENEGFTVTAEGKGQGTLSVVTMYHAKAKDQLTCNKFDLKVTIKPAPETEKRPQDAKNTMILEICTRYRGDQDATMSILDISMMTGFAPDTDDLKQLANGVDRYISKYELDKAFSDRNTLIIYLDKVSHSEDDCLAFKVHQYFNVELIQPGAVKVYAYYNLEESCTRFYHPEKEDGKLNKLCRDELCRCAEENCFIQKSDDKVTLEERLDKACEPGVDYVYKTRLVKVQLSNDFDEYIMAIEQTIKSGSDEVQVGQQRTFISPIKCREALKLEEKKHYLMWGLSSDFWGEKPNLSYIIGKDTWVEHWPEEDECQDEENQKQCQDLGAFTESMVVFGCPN
Sequence of C3b (P01024 23-667 limits assumed, chain 2 of 2): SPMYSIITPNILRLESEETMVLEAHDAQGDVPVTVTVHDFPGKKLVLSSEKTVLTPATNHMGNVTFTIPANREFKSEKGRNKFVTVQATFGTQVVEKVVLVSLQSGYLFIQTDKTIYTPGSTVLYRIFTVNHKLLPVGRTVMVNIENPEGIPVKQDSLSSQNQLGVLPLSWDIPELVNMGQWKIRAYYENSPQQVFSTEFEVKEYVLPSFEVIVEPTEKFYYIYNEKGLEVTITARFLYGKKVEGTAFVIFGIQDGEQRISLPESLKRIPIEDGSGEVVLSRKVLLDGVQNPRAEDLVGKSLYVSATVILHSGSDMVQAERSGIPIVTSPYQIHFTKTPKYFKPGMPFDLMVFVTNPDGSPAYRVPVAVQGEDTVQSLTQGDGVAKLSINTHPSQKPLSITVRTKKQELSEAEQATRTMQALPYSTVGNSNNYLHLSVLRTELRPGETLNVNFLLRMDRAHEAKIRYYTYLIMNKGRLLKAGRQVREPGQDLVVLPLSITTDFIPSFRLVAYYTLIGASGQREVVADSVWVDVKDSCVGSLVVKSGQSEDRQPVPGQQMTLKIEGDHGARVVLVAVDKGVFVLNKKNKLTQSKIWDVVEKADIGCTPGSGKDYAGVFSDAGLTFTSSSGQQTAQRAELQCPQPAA

recombinant human complement factor H produced in Pichia pastoris from codon-optimised DNA (Example 2) (from UniProt P08603 19-1231)
Kd [1]: 1400 nM
cofactor for factor I-catalysed cleavage of C3b to iC3b (SDS-PAGE, Coomassie blue) [2]: < 5 min
